Legend:
[1] = target: T1, Glucocorticoid Receptor (GR) (Homo sapiens, UniProt P04150); experiment: Yeast based two-hybrid system with full-length GR (Example 503); assay type: cell-based
T1 construct: peptides to GR in the yeast based system using full-length receptor; expressed in transfected cells; host or cells: yeast
T1 sequence (P04150 1-777): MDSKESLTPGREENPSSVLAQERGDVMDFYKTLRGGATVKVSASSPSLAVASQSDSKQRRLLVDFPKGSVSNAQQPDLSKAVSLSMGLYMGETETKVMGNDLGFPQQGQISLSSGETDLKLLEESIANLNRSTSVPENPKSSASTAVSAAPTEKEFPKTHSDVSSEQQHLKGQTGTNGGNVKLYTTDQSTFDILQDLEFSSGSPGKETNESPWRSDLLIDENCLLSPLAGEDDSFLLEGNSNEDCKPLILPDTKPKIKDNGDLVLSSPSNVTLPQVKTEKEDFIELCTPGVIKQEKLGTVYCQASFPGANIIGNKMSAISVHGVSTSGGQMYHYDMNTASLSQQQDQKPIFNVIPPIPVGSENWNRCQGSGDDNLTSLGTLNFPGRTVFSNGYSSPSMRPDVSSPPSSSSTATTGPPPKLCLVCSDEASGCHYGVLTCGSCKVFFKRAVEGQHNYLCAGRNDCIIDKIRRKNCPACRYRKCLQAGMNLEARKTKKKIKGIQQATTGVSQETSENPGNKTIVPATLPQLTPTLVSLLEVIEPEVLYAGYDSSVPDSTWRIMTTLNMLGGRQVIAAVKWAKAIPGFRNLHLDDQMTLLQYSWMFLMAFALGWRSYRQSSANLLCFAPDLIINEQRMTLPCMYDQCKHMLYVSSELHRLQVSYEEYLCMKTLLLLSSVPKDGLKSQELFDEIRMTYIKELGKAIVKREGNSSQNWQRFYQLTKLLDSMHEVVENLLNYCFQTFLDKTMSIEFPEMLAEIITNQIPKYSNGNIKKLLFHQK
Text: (§1) We have performed a limited amount of in vivo screenings for peptides to GR in the yeast based system using full-length receptor and either dexamethasone or medroxyprogesterone acetate as ligands. We have a single peptide sequence that we have followed up on based on its specificity profile in yeast. This peptide was isolated on MPA liganded GR, and is termed GRMPA. Its sequence is as follows: […] (SEQ ID NO:268).

[2] = target: T2, glucocorticoid receptor (Homo sapiens, UniProt P04150); experiment: Mammalian cell based peptide/GR interaction assay in Huh-7 cells, 96-/384-well luciferase
T2 construct: expressed in transfected cells; host or cells: Huh-7 cells
T2 sequence (P04150 1-777): T1 sequence (P04150 1-777)
Text: as §1
We have isolated numerous peptides using phage display to the GR ligand binding domain and have formatted cell based assays in mammalian cells for screening large compound sets. We have formatted the assay as stated above for 96-well plates and for 384-well plates. To format the assay to 384-well plates the number of cells per well were scaled down to 5,000 Huh-7 cells per well. Similar ratios of DNA constructs and lipection reagents were used in both assays for transfections prior to seeding the cells into the assay plates. We have also carried out a screen of a 60,000 compound set with one of the phage display isolated peptides in this mammalian cell based format. This peptide interacts with the glucocorticoid receptor in the presence of both agonists (e.g. fluticasone propionate and dexamethasone) and antagonists (RU486). For the compound screen cells were transfected in suspension with DNA constructs as described above prior to seeding 5,000 cells per well. […]

[3] = target: T3, ER α (Homo sapiens, UniProt P03372); experiment: Phage ELISA fingerprint: peptide binding to immobilized ER α with modulator present (Table 14A); conditions: ICI 182,780 (1 μM)
T3 sequence (P03372 1-595): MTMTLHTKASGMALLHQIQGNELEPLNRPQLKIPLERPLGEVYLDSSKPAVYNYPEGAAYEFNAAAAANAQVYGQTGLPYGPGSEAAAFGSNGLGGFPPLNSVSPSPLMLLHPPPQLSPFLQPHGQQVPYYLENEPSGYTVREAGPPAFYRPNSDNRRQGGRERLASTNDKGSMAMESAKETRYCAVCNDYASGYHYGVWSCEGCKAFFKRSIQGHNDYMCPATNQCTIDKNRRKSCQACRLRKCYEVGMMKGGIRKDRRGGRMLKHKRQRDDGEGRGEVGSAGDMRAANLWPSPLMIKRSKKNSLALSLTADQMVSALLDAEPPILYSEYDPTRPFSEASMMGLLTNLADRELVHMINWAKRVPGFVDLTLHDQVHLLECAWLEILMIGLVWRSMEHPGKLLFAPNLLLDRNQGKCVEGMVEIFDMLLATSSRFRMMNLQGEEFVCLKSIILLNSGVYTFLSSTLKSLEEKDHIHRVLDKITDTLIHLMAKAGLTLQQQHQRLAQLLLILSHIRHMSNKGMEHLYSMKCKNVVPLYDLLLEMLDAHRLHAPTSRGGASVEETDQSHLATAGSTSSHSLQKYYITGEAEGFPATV

[4] = target: ERβ (Homo sapiens, UniProt Q92731); experiment: Phage ELISA fingerprint: peptide binding to immobilized ER β with modulator present (Table 14B); conditions: nafoxidine (10 μM)
Sequence of ERβ (Q92731 whole entry, species assumed): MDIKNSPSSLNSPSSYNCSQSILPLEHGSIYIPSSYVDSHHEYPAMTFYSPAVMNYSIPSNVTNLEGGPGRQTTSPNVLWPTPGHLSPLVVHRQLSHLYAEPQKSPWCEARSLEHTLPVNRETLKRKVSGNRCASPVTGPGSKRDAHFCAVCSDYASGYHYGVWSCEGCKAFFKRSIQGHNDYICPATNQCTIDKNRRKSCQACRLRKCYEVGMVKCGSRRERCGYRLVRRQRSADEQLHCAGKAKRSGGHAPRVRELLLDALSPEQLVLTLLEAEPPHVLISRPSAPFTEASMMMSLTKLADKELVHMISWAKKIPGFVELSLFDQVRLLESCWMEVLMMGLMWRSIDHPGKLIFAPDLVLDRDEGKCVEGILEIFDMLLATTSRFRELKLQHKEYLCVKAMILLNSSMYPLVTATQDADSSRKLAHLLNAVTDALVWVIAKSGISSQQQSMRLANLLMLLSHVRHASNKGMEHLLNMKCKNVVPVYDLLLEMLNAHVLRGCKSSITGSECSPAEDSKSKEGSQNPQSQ

Row | Interaction with GR in the presence of partial agonists ([1]; MPA, cortivazol, and deoxycorticosterone) | Interaction with GR in the presence of antagonists ([1]; RU486) | Interaction with GR in the presence of full agonists ([1]; fluticasone propionate and dexamethasone) | Interaction with GR in the presence of all ligands (agonists, partial agonists, and antagonists) [2] | Class Specific Fingerprint on ERα: peptide binding, ICI 182,780 present [3] | Class Specific Fingerprint on ERβ: peptide binding, Nafoxidine present [4] | Sequence
1 | interacted | interacted | not | interacted |  |  | EFVARYGQLLGWRHPCS [GRMPA]
2 |  |  |  |  | 0 | 5 | SRLPPSVFSMCGSEVCLSR [9Tβ]

— patent US20030224390A1, “Method of identifying conformation-sensitive binding peptides and uses thereof” (Karo Bio AB, priority 2000, published 2003)
